According to publication PMC4983110, “Shared and distinct functions of the pseudokinase CORYNE (CRN) in shoot and root stem cell maintenance of Arabidopsis” (Journal of Experimental Botany, 2016):
Residue numbers refer to the chain shown, from its start. Names and notes keep the numbering of the source. One block for each molecule: values may come before it.

Columns and labels:
Assay in all cases: FRET or BRET; FRET-APB (acceptor photobleaching) in transiently transformed Nicotiana benthamiana cells; GFP donor, mCherry acceptor bleached in a region along the plasma membrane; apparent FRET efficiency as donor-dequenching in %
[1] = biological target: CLAVATA2 (CLV2), wild type, tagged with mCherry (Arabidopsis thaliana) (UniProt O80809)
[2] = biological target: CLV2 with the first conserved arginine of the RxR motif replaced with an alanine, tagged with GFP (Arabidopsis thaliana) (UniProt O80809)
[3] = biological target: CLV2 with the entire RxR motif deleted, tagged with GFP (Arabidopsis thaliana) (UniProt O80809)
[4] = biological target: chimeric protein of the CLV2 LRR-receptor and its TMD fused to the CRN kinase domain, tagged with GFP (Arabidopsis thaliana) (UniProt Q9LYU7)
[5] = biological target: T1, CLAVATA2 (CLV2), wild type, tagged with GFP (Arabidopsis thaliana, UniProt O80809 26-720); conditions: partners not purified
T1 construct: CLAVATA2 (CLV2), Arabidopsis thaliana, LRR receptor-like protein, wild type, from cDNA; also called CLV2-GFP; source: N. benthamiana, transiently expressed from an inducible vector, in living cells
T1 sequence (looked up): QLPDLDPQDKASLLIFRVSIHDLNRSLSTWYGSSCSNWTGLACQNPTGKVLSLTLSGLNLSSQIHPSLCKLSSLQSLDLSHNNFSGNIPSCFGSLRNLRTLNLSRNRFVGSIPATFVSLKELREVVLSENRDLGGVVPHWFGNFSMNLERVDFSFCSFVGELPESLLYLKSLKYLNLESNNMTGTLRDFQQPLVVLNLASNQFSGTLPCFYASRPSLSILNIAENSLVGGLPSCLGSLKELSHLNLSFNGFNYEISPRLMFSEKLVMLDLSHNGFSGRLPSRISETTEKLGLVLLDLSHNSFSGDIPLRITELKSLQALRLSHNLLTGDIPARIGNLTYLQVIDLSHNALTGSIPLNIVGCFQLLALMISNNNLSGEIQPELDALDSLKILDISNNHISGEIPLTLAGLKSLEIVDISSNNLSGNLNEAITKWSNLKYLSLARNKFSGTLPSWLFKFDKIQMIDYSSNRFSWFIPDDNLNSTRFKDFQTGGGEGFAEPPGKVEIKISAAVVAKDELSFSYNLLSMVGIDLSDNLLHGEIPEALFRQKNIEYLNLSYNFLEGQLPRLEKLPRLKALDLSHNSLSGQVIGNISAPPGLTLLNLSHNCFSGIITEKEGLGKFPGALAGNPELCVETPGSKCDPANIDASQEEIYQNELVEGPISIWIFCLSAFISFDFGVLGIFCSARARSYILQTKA

[6] = biological target: T2, CLAVATA2 (CLV2), wild type, tagged with mCherry (Arabidopsis thaliana, UniProt O80809 26-720); conditions: partners not purified
T2 construct: CLAVATA2 (CLV2), Arabidopsis thaliana, LRR receptor-like protein, wild type, from cDNA; also called CLV2-mCherry; source: N. benthamiana, transiently expressed from an inducible vector, in living cells
T2 sequence (looked up): T1 sequence (looked up)

Molecule: chimera of CRN in which the kinase is replaced with the kinase domain of CLV1, tagged with GFP (from UniProt Q9SYQ8 692-968)
D-d (%) (donor-dequenching, apparent FRET efficiency) [1]: 10.3%

Molecule: CRN lacking the N-terminal, distal part of the extracellular domain, tagged with GFP (from UniProt Q9LYU7 34-62) (natural protein)
D-d (%) (donor-dequenching, apparent FRET efficiency) [1]: 11.2%

B1: CORYNE (CRN), wild type, tagged with mCherry (natural protein, Arabidopsis thaliana, UniProt Q9LYU7 34-401, looked up)
chain: TSCRRRTVKHLSTTSTSSTPLESRITSKVIVISIVSGILTGLVSALVLAFLVRSIVKFMKQTPILKGPVVFSPKITPKSLHAALSNGIQLLGSDLNGKYYKMVLDNGLVVAVKRLGSLEGVGSPESSSSKSVKRRLQKELELLAGLRHRNLMSLRAYVRESDEFSLVYDYMPNGSLEDVMNKVRTKEVELGWEIRLRVAVGIVKGLQYLHFSCETQILHYNLKPTNVMLDSEFEPRLADCGLAKIMPSSHTAVSCYSAPESSQSNRYTDKSDIFSFGMILGVLLTGRDPTHPFCEESASGGSLGQWLKHLQQSGEAREALDKTILGEEVEEDEMLMALRITIICLSDFPADRPSSDELVHMLTQLHSF
notes: CORYNE (CRN), Arabidopsis thaliana, wild type, from cDNA; the longer splice variant, not gene model AT5G13290.1; also called CRN-mCherry; source: N. benthamiana, transiently expressed from an inducible vector, in living cells
D-d (%) (donor-dequenching, apparent FRET efficiency) [2]: 14.2%
D-d (%) (donor-dequenching, apparent FRET efficiency) [3]: 11.4%
D-d (%) (donor-dequenching, apparent FRET efficiency) [4]: 5.7%
D-d (%) (donor-dequenching, apparent FRET efficiency) [5]: 11.7%

B2: CORYNE (CRN), wild type, tagged with GFP (natural protein, Arabidopsis thaliana, UniProt Q9LYU7 34-401, looked up)
chain: B1 chain
notes: CORYNE (CRN), Arabidopsis thaliana, wild type, from cDNA; Residue numbers (G70, S156, Q296) count on the longer splice variant, not on gene model AT5G13290.1, on which S156 is S131; also called CRN-GFP; source: N. benthamiana, transiently expressed from an inducible vector, in living cells
D-d (%) (donor-dequenching, apparent FRET efficiency) [6]: 10.5%

B4: CRN with S156D (putative phosphomimetic variant), tagged with GFP (natural protein, Arabidopsis thaliana, UniProt Q9LYU7 34-401, looked up)
chain: B1 chain with S123D
notes: CRN, Arabidopsis thaliana, serine 156 replaced with aspartic acid; S156 is S131 on gene model AT5G13290.1 (the shorter splice variant); also called CR(SD)-GFP; CR(SD); source: N. benthamiana, transiently expressed, in living cells
D-d (%) (donor-dequenching, apparent FRET efficiency) [6]: 12.2%

B5: crn-1 variant of CRN (G70E in the predicted TMD), tagged with GFP (natural protein, Arabidopsis thaliana, UniProt Q9LYU7 34-401, looked up)
chain: B1 chain with G37E
notes: CRN, Arabidopsis thaliana, with the amino acid exchange G70E of the EMS-induced crn-1 allele in the predicted TMD; also called crn-1-GFP; source: N. benthamiana, transiently expressed, in living cells
D-d (%) (donor-dequenching, apparent FRET efficiency) [6]: 5.2%

B6: crn-3 variant of CRN (translational stop at Q296, kinase domain shortened by one third), tagged with GFP (domain or fragment, Arabidopsis thaliana, UniProt Q9LYU7 34-295, looked up)
chain: TSCRRRTVKHLSTTSTSSTPLESRITSKVIVISIVSGILTGLVSALVLAFLVRSIVKFMKQTPILKGPVVFSPKITPKSLHAALSNGIQLLGSDLNGKYYKMVLDNGLVVAVKRLGSLEGVGSPESSSSKSVKRRLQKELELLAGLRHRNLMSLRAYVRESDEFSLVYDYMPNGSLEDVMNKVRTKEVELGWEIRLRVAVGIVKGLQYLHFSCETQILHYNLKPTNVMLDSEFEPRLADCGLAKIMPSSHTAVSCYSAPESS
notes: signal peptide in the construct; CRN, Arabidopsis thaliana, truncated by the point mutation at Q296 of the EMS-induced crn-3 allele, which causes a translational stop; also called crn-3-GFP; source: N. benthamiana, transiently expressed, in living cells
D-d (%) (donor-dequenching, apparent FRET efficiency) [6]: 18.3%

The next lines start with the values.

D-d (%) (donor-dequenching, apparent FRET efficiency) [1]: 24.5%
Molecule: shortened CRN protein lacking the kinase, tagged with GFP (domain or fragment)

D-d (%) (donor-dequenching, apparent FRET efficiency) [1]: 10.5%
Molecule: CRN lacking the proximal part of the extracellular domain adjacent to the TMD, tagged with GFP (from UniProt Q9LYU7 34-62) (natural protein)

D-d (%) (donor-dequenching, apparent FRET efficiency) [1]: 7.2%
Molecule: CRN lacking the entire extracellular domain, tagged with GFP (from UniProt Q9LYU7 34-62) (natural protein)

D-d (%) (donor-dequenching, apparent FRET efficiency) [6]: 13.5%
B3: CRN with S156A (phosphomute variant), tagged with GFP (natural protein, Arabidopsis thaliana, UniProt Q9LYU7 34-401, looked up)
chain: B1 chain with S123A
notes: CRN, Arabidopsis thaliana, serine 156 replaced with alanine; S156 is S131 on gene model AT5G13290.1 (the shorter splice variant); also called CR(SA)-GFP; CR(SA); source: N. benthamiana, transiently expressed, in living cells
